In patent US20180346571A1:

Assays:
[1] = target: cynomolgus PD-L1-CD4TM-GFP expressed on HEK-293 cells (cynomolgus) (UniProt G7PSE7); test: FACS on HEK-293 cells transfected with cyno PD-L1-GFP, secondary antibody alone (negative control)
[2] = target: human PD-L1 ECD-CD4TM-GFP expressed on HEK-293 / HEK-293T cells (human) (UniProt Q9NZQ7); test: FACS on HEK-293 cells transfected with hPD-L1-GFP, secondary antibody alone (negative control)
[3] = target: mouse PD-L1-CD4TM-GFP expressed on HEK-293 cells (mouse) (UniProt Q9EP73); test: FACS on HEK-293 cells transfected with mPD-L1-GFP, secondary antibody alone (negative control)
Sequence of UniProt Q9EP73 (Q9EP73 19-239): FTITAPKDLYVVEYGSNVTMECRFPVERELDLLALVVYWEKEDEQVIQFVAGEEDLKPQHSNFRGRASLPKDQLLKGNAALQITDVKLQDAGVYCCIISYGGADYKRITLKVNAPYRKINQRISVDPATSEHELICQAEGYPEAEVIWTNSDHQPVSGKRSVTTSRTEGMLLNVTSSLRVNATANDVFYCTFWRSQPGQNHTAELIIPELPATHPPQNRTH

[4] = target: human PD-L1 ECD-CD4TM-GFP expressed on HEK-293 / HEK-293T cells (human) (UniProt Q9NZQ7); test: FACS on HEK-293T cells expressing hPD-L1-GFP, control panel headed anti-mFc-PE in the row 'No antibody' (taken as the control without PD-1-Fc of paragraph 289)

Sequence of UniProt Q9NZQ7 (Q9NZQ7 19-238): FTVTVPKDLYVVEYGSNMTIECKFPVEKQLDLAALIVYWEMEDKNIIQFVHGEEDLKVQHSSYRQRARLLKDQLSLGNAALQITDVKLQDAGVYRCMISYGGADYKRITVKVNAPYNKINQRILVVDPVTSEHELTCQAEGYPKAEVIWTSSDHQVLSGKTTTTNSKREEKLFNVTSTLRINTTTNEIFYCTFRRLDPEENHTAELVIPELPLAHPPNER
Sequence of UniProt G7PSE7 (G7PSE7 entry or part of it limits assumed): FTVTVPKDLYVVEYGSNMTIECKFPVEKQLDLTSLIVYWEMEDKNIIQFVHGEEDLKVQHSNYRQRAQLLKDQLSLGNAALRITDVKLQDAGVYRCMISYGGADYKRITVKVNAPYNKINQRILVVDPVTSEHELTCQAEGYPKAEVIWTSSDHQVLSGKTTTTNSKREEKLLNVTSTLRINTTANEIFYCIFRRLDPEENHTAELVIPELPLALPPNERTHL

Substance | MFI [1] | MFI [2] | MFI [3] | MFI [4]
Only anti-hFc Ab (antibody) | 3 | 3 | 3 | –
anti-mFc-PE (antibody) | – | – | – | 10
Only anti-mFc Ab (antibody) | – | 6 | – | –
